The assay addresses p53 (Homo sapiens (Human), UniProt P04637 1-393). The assay is described as follows: cell-based or functional assay.

Sequence of p53 (P04637 whole entry): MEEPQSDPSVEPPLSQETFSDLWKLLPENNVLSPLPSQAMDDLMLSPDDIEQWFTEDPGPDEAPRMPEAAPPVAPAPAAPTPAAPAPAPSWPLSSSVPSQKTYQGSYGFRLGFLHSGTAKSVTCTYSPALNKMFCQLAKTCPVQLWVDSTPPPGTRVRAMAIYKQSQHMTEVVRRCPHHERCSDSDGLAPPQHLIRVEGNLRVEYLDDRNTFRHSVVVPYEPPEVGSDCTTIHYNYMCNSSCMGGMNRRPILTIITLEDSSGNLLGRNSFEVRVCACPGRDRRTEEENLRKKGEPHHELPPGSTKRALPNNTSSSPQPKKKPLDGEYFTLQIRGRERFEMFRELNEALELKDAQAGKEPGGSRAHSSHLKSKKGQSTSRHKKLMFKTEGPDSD

B1: GSE56 (p53 dominant negative peptide) (peptide)
peptide: MDGWCPGRDRRTEEENFRKKEEHCPELPPGSAKRALPTSTSSSPQQKKKPLDGEYFTLKIRGRERFEMFRELNEALELKDARAAEESGDSRAHSSYPKIVS
In the case of B1, the “fold decrease in TaqMan assay of CDKN1A (p21) gene fold expression at 24 hours post-editing” value was around 3 fold.

These data come from patent publication US20210260216A1 (OSPEDALE SAN RAFFAELE S R L, published 2021).
